The text below walks through data of the supplement of paper PMC10126150.

This series has as its system ATP. The experiment in a line: switch fluorescence ratio, 500 uM ATP over buffer (Cy3 cluster intensity, sum of 5 cycles each) (fold (ratio)); higher = stronger signal-on switching upon ATP binding; sequences stand for … in TCGTCGGCAGCGTCAGATGTGTATAAGAGACAGTTTTTTTTTTTTTTTTTTTTTTTTT…TC. The settings on record: aptamer strand: ATP DNA aptamer (quencher-CACCTGGGGGAGTATTGCGGAGGAAGG + anchor), 100 nM annealed; ATP concentration: 500 uM. Put shortly: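 Cy3-labelled switching-strand clusters on a modified Illumina MiSeq flow-cell were annealed to 100 nM quencher-labelled ATP aptamer and imaged first in selection buffer, then after 15 min with 500 uM ATP at 22 °C. NaOH stripping and re-annealing separated each of five buffer/ATP cycles, and clusters outside 100-1000 RFU were excluded. The fluorescence ratio sums target-cycle Cy3 intensity over buffer-cycle Cy3 intensity per cluster and averages it per switch-domain sequence.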

± gives the standard deviation of the averaged measurements.
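Also: ATP exposure 15 min at 22 °C before imaging.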

On to GAGTGCTCGA, for which the switch fluorescence ratio amounted to 1.01 ± 0.074.
For CCTGTTTTAC, the switch fluorescence ratio was found to be 1.24 ± 0.045.
For CTCGTTGAAG, the switch fluorescence ratio stood at 0.979 ± 0.032.
ATGCCCAGGG: the switch fluorescence ratio stood at 1.61 ± 0.04.
TCAGTAACGT: the switch fluorescence ratio was 1.02 ± 0.013.
Turning to GGTTCTTATT, the switch fluorescence ratio was 1.017 ± 0.0064.
In the case of AGGGGTCGCG, the switch fluorescence ratio stood at 0.981 ± 0.0054.
GTGATCTATA: the switch fluorescence ratio came to 0.99 ± 0.025.
Take AGGAATAAGT: the switch fluorescence ratio was determined as 1.11 ± 0.16.
As for TTCGTTAGCA, the switch fluorescence ratio was 1.54 ± 0.8.
Under GGAATGTGGG stands 0.984 ± 0.042; under TAGTCAGTCG, 1.08 ± 0.11; under ATAGTGATAT, 1.06 ± 0.11.
For AGAAGAAGTA, the switch fluorescence ratio amounted to 0.9955 ± 0.0035.
For GGGGATGAAA the value was 0.989 ± 0.011; for GATGTAGGTA, 0.983 ± 0.038; for TTTTTCCGCT, 1.86 ± 1.
Under GTGCCAGGAT stands 1.03 ± 0.052.
Regarding TTAGGGTGGT, the switch fluorescence ratio was 0.99 ± 0.018.
For TTGGGGGAGA the value was 1.02 ± 0.038.
On to ATTTTCATAT, for which the switch fluorescence ratio worked out at 0.98 ± 0.021.
TGTTTGGGCG: the switch fluorescence ratio worked out at 1.03 ± 0.077.
For the sequence CAGGACCTCG, the switch fluorescence ratio stood at 1.03 ± 0.024.
Turning to AAGTTTGACC, the switch fluorescence ratio turned out to be 0.978 ± 0.032.
Take TGCTGGGTTT: the switch fluorescence ratio turned out to be 0.998 ± 0.011.
CTAGGCCGGG: the switch fluorescence ratio is 0.98 ± 0.025.
In the case of ACTATGGGGG, the switch fluorescence ratio amounted to 0.995 ± 0.036.
With AGTTTGTCTG, the switch fluorescence ratio amounted to 0.9665 ± 0.007.
On to TAACGTAGGA, for which the switch fluorescence ratio was found to be 1.07 ± 0.031.
Under TTTGGTGGTT stands 1.03 ± 0.059.
For TAGGTTAAGG the value was 1 ± 0.034; for GATTAAACGG, 1.04 ± 0.04; for TCAGGGTCAG, 1.007 ± 0.0063.
For TGTGAGTTTT the value was 0.974 ± 0.014.
As to CGAGAGACCG, the switch fluorescence ratio was found to be 0.951 ± 0.013.
For TGGTGCTCAT the value was 0.994 ± 0.024.
In the case of GCAACCATTA, the switch fluorescence ratio came out at 1.03 ± 0.018.
Consider TGTAAGGGCG, for which the switch fluorescence ratio amounted to 1.02 ± 0.016.
In the case of CCTCTACG, the switch fluorescence ratio was 1.41 ± 0.044.
Turning to GGTGGGGTAA, the switch fluorescence ratio came out at 0.9927 ± 0.0083.
For TAGATGAGAG, the switch fluorescence ratio worked out at 0.969 ± 0.012.
Turning to GAGGCAAGG, the switch fluorescence ratio amounted to 1.341 ± 0.0038.
Regarding CATGCTTCAT, the switch fluorescence ratio stood at 0.988 ± 0.017.
Under GGGTGGTTAC stands 0.99 ± 0.044.
On to TGAGTACTGA, for which the switch fluorescence ratio was found to be 1.02 ± 0.024.
For AAGGTTTAAG the value was 0.999 ± 0.011; for GGGGTAAAAC, 1.02 ± 0.023; for GTATTATTTT, 0.979 ± 0.024.
In the case of AGATTGGGGC, the switch fluorescence ratio came to 0.974 ± 0.013.
Under ATAGTATAAG stands 1.002 ± 0.0073; under TGGAGTCCGG, 0.987 ± 0.036.
For TTTTTTAACT, the switch fluorescence ratio was 1 ± 0.046.
With TGGGGGCAAG, the switch fluorescence ratio came out at 0.987 ± 0.018.
As to GCTCGACTTT, the switch fluorescence ratio turned out to be 1.02 ± 0.012.
Consider CCGGATTGTC, for which the switch fluorescence ratio came out at 1.13 ± 0.044.
For GTGGTTTTAT, the switch fluorescence ratio amounted to 0.979 ± 0.013.
For CCGTGTTCGA the value was 1.01 ± 0.051; for GCTGATGGTG, 0.989 ± 0.02.
Take CGGGCAGGGC: the switch fluorescence ratio was 1.04 ± 0.019.
For GTGATTTTAT the value was 0.969 ± 0.028.
Consider CCGCGCTGCC, for which the switch fluorescence ratio stood at 2.71 ± 0.8.
On to TTTGTTCGGC, for which the switch fluorescence ratio is 1 ± 0.033.
AAACCGGGCA: the switch fluorescence ratio was found to be 1.22 ± 0.22.
As for TGGTGTTGTC, the switch fluorescence ratio stood at 1.03 ± 0.033.
For the sequence CCAGGTTTGT, the switch fluorescence ratio was 1.17 ± 0.016.
On to TAAGTGCAAG, for which the switch fluorescence ratio is 1.01 ± 0.033.
For the sequence TAGGGGAACC, the switch fluorescence ratio was found to be 0.9693 ± 0.0092.
